Test results published in the DeepSol protein solubility set.

Assay: soluble on expression in E. coli; label from the status in PepcDB or PDB records

Soluble on expression in E. coli, soluble:
MSLTARSVVLSVLLGAHPAWATASELIQLTADFGIKETTLRVALTRMVGAGDLVRSADGYRLSDRLLARQRRQDEAMRPRTRAWHGNWHMLIVTSIGTDARTRAALRTCMHHKRFGELREGVWMRPDNLDLDLESDVAARVRMLTARDEAPADLAGQLWDLSGWTEAGHRLLGDMAAATDMPGRFVVAAAMVRHLLTDPMLPAELLPADWPGAGLRAAYHDFATAMAKRRDATQLLEVTEGHHHHHH
MGSSHHHHHHSSGLVPRGSHMASMTEQRTKYADSILTTKSPYEATETIRIRLSQVKLLNKDFYLLFKELANLKRNYAQQLRKIIAENEDITKILNAQMIESNVLTPQEMSAFRFNSLGELRNVWDTVIEELKSDLKSSTEYYNTLDQQVVRELKESVENNTSWRESKDLHSKLSKNAASIEHYSKNNENSSHLEEARRQWDQQSPYLFELFETIDYNRLDTLKNCMLRFQTSFSDYLLNTTKECETVMTKFLAFEPQSEIDRFAKDASQYNFQLSSSSKEVVPNNAS
SNTGPYYFVKNLPLHELITPEFISTFIKKGKLILSLDKDTYEETGLQGHPSQFSGRKIMKFIVSIDLMELSLNLDSKKYERISWSFKEKKPLKFDFLLAWHKTGSEESTMMSYFSKYQIQEHQPKVALSTLRDLQCPVLQSSELEGTPEVSCRALELFDWLGAVFSNVDLNNEPNNFISTYCCPEPSTVVAKAYLCTITGFILPEKICLLLEHLCHYFDEPKLAPWVTLSVQGFADSPVSWEKK
MSLKFVGLVGSNYDQSYNRKLLEFIRRYFKLKFELEVLEIDEVPMFNQDEKWDESFQLRYLYNKITRADGVIIATPEHNHTISASLKSVLEWLSYEVHPFENKPVMIVGASYYDQGTSRAQVHLRKILDAPGVNAYTLPGNEFLLGKAKEAFDNNGNITNEGTVKFLETCLDNFVKYVGVVSKLKKPKPIESEDLDCGKPIATTITEVDPDDPEWVEKVAAFTGAVSGDTYVKLDHGILTVNQIDMFLKAMPFELTYADDNNQFLYYNNAHQDPDTMFAKRVPPQSGSRMSTVHGSLPPARMKNVEWVIGTLRNGNQEYVRTIVPGSPAGVINTHNYQAMYYPDGSYAGINEIVFNFQPWLDWYLKETGQRLVGGSGPFAPAAGGHGDADATSGASDSGDAGGHGGDADATAGASYEGHHHHHH
SRQWSQTLCEMSESEDDDIPQLSSHTLAALQEFYAEQKQSVNPRGDDKYNVGVIEENWQLSQFWYSQDTALRLAREAIDAAGEGGRIACVSAPSVYQKLRELCREDSSVYIFEYDRRFAIYGDEFIFYDYNHPLELPERIAAHSFDLVVADPPYLSEECLRKTSETIQFLTRGKILLCTGAIMEEQAAQLLGVKMCKFIPEHSRNLANEFRCYTNYDSGLDCEA
IIGGREVIPHSRPYMASLQRNGSHLCGGVLVHPKWVLTAAHCLAQRMAQLRLVLGLHTLDSPGLTFHIKAAIQHPRYKPVPALENDLALLQLDGKVKPSRTIRPLALPSKRQVVAAGTRCSMAGWGLTHQGGRLSRVLRELDLQVLDTRMCNNSRFWNGSLSPSMVCLAADSKDQAPCKGDSGGPLVCGKGRVLAGVLSFSSRVCTDIFKPPVATAVAPYVSWIRKVTGRSALEHHHHHH
GPLGSSAVTITLKTLQQQTFKIRMEPDETVKVLKEKIEAEKGRDAFPVAGQKLIYAGKILSDDVPIRDYRIDEKNFVVVMVTKTKAGQGTSAPPEASPTAAPESSTSFPPAPTSGMSHPPPAAREDKSPSEESAPTTSPESVSGSVPSSGSSGREEDAASTLVTGSEYETMLTEIMSMGYERERVVAALRASYNNPHRAVEYLLTGIPGSPEPEHGSVQESQVSEQPATEAAGENPLEFLRDQPQFQNMRQVIQQNPALLPALLQQLGQENPQLLQQISRHQEQFIQMLNEPPGELADISDVEGEVGAIGEEAPQMNYIQVTPQEKEAIERLKALGFPESLVIQAYFACEKNENLAANFLLSQNFDDE
MAHHHHHHMDRLAGSFLSNGDVANASSLYNSLEKLNPTRYSRMARICRVLLNPQGVPLPHRHLDICEALLDPLVPPEVLLRDSAENVQKSFQRLAVCAHPDKNPSPSANEAFLRLTMMKDKALELLRNGVGRKCDGATEAPPGKAADSNGGKGKPKMQGSGPAVPTVAHRRRPLRPGVPL
MHGKDPFSDFREFINTMESRVQELGKAYGVEHLAGPQGFAVRYLFENQDKEIFIKDIEKKLSISKSVASNLVKRMEKNGFVELVTSDKDKRYKYVHLTDLGKKKAQDVGHFREAIHGQLLDGISKEDAETAFRVFHQIRKNLEKNKELEHHHHHH

Soluble on expression in E. coli, not soluble:
MSGEESMPDEEQKQSEEEEEMIRKRTLAMRKKVEEIMRNGAGLVRESNGLPKAGADYELYNSYPTFNTFMKRSEQRLNALMNKVTKSIGCAMRVPDVGSSVEHYTECVIEAQDNIAERAATLHEALKKAELDEIVKVPEFITKAAPTNRKTEAEVSAAMRTFSANIGTVLAEKFRERREEAAQMVVLEKPQKTYNISSDNSQAPFSSKLTVKHHAIEKRTGIVLHDDDESGRRDWISAETETEEEHPYIAEILHFKVPEAQLKSAECLKFTALKDTPLTMIDTKEKLEALTKTLNSVKEFAVDLEHHQMRSYLGLTCLIQISTRDEDFIIDPFPIWDHVGMLNEPFANPRILKVFHGSDSDVLWLQRDYGVHVVNLFDTYVAMKKLKYPKFSLAYLTLRFADVVLDKQYQLADWRARPLRNAMINYAREDTHYLLYSYDMLREQLLKQDTKDLANVYSESSDLCIKVYKKPVFNPKGYLTEIKFRFTLNTRQDYALTHLFKWRDVVARAEDESPHFVLPNHMMLSLSETLPRDVGGIYACCNPLPYFVKQRTGDILKIIVEARDVKLEKVGLSAKERNDAQEARGVMNDTMDHITSVLKSKIDFSHTRFDEERGEIYIDKTDEGMDIELKDHKESLLSVLQTAEIPSVETMIVVEKGKKSDNQKVKKLLNELDKFVTPFECYQMMMITKEKQEEEERKEAERKKLEEGDLPKTMFSHHDAPINRKPEFDAKLLNVDTLKLVPDDPNKPKDPEPSPMEESSSEPQIFDPSRFTDDQLLSKKAMKRKRDAARRNIDVSVVLGESSSSSDPKKKKSDDDAPVEDFDYEKADSSAFEKPVRDNNADFDPFHQKYRLKNKTKKNMAMKKSSNRQGTINYKK
MGSDKIHHHHHHMATHNHTLTMEWIVDRTRTVYSLPYFYERLNEAINHPRSSIDDVARIIIDDQGLTARILKLANSPMFGFFSKVDSISKAVTIIGTQQLRDLALAASVMDVFKDIPRELMDMVLFWRHSIACGIVARNLAIYLRESNVERFFVAGILHDVGQLVMCTAIPEKVSEVLARNRLESRFLDATERDALGFDHAALGGALLRAWKIPATINEPVAYHHEPGKAEQFSLEVSIIHLADIICQALGYGASGEGGVPLLDPAAWDRLGVPVSILTTIVKQSEPQVEETFAILVEG
MVKCMKPGKAVILLQGRYTGKKAVIVKSFDDGTVEKKYGHCLVAGLKKYPSKVIRKDSAKKTAKKSRVKCFFKVINYQHVMPTRYTLDLDLKNVVSADAISSKDKKVTALKEAKAKFEERFKTGKNRWFFTKLRF
MGSDKIHHHHHHMSDSIYSIGTQGQPWTDEDKDLWLSKQVIKRSYQDEVLSKFESVTSSFDMIQYGSLSIDESRYPLYAMRSKNWQSKNKTVLVTGGVHGYETSGVQGAIRFLETSAKDFSQRFNIIVVPCVSPWGYETINRWNNEAIDPNRSFYLDSPAQESAALMSFINELDVNIAMHIDLHETTDTDNSEFRPALAARDAIEQKNWNIPDGFYLVGDSTKPAADFQGAINQAVAKVTHIAPEDSNGKLIGVDIEQFGVINYAGRELGLCMGLTDAPYVTTTEVYPDSPLVDDENCITAQVAAISAAITFI
MSGKLYICPTPIGNLEDITYRTLRTLKEVDLIAAEDTRHSIKLLNHFEISKPLTSYHEHNKDSKGDYLINKLIDGENIALISDAGMPGISDPGEEIIKQAIQNNIEIEVLPGA
MDLMEEMWISRPQRRMTKLSDLSDGSIARIKFYNANKEYTVDSFKIMFAEYQKSIYCNQEVIGVCHSISDYSYIVDYINNSHFRNELDIFTPEFDKKRTHHITSHKSDKDTLQVRVISNEGVIKSYDMSAIEITFEKMYHIIDKERNGYRSGQL
MSNQLAVSDVPTAAWTSQQPRSPRMFDQENGFSQNFQPFMQQNKTVNPCTISDDVREEMMRLRRRENAFKTALCKTFQLTKACSYGEQCKFAHSVEELQLKHQNLGINNPKYKTVLCDNFSTTGHCKYGTKCQFIHRTVEPASLKIQNPLVPRFPSWFAPPSSLAREFLCLNHFEASTSSSTTQKLTSSNLSTSTFRYY
MGSDKIHHHHHHMKELKIIFIPGWGMEEGVWTLVLPYFKEYSVQCINWRNVKEQSEFAGRIIDVAKDENVILVGWSLGALAAVQAHKKIQTKGIVLIGGTPKFTNTSDYTSGWNALHVERLKKNVARKKEDTLKRFYENMFTKDELKENTSFEEIALNFKGDSIQSLQLGLDYLIETDMRNELIDVKVPLLLLHGEQDVICPLSAAHSMTENANAKLKVVSEAGHALCVTNFEYCANEIIQFVEGIRHDQQNVTTKTI
MISLTQQVSAVRLDTHKSDTFEQNDLVLDNTGAVLSGSRDALIRRLVPTRDFCPDESYIFSLLVNIRTFISPHELMQKIVQYCMFAQNADSHNFAKEGRGRMFAHILRLCSEWATNIPYDFKTEYMRTRLNELLRLCAVDKTYQQKTTELQSTLRSSLNKLDRYEKAVANLQKALSENTNLPEQSDSMTGLFVLCNDAKTVAQQLTHIEMERFSMVGVDEIVQSLASDPLSEIGRHSKNKEGTISSISFYIEWFNRLSAFAAIEVLKQTKKRNRVAVFEFMIDIAKECCEIGNFNSMMAIVAGLSLPAVSRLKKTWCRVEKAKLEILQHQLDPSGNFLSYRATIKAAQWRADSARGNQQKIVIPFFVLLLKDLFLIYHGHPRILPNAHLNFMAFNQLAEQLRDVIQWKSTVCTFEKNPQVLQYLLITSVSGEKDSMLMSFECEPPESSSERDQHKKLKGGK
SLNERVMMINANGVPIALYNRGHLGSGHFGAVIKASLDDGTLYAAKVPYSQIVPNADATSAELEAEISSARAELVKTIRQELDVRDKLVAKGLTLTETAEQYGLPLCQMTLTLPENKATVVRRGSRLVVVSKEVMLLPLIDGSPSNSLVQSQPPFLFQRAVAREAIIALAKLHELGFAHGDVKLNNMMIDVHGFGHMLDMGSVRPVDSCVSEEDKYYLRLWAPELAKSQHTSQQTCLKRGALDVWALGLAIFEFVCFNRLPYSLSNLPSSLWSRVEHLSRLRLSDFSAKDCNESDPAVMGIVAQFLNPNPEERPELPKFVSSYTFFRQAPGVTSHLTRIPTTELSSHR
VIDALRNNNDYEPYNKDSNNQAFNSEEITRFFSIGKYTYPSIFSELNFIINAREAFVSIQTSTIPKTAYAAVNFVETQGEDESYTDSLSTDNKRDIYADFAVIEIPLFLTNHRDYQVFNEFIKPAIETYKQLGNSSFEKKQLDQHKNDNFYMLGYPLVESSIDALILNQRRQYNNSYTEKYTPQTLTKDQRTIDLSREVPTLIQNKTENSTGSQLLVNQSLSSTSEGIIE
MAHHHHHHMEVEGTKERARGVTTFTRADLELREAAEDHRALLAEPWASHALRKGYSGREEHTKWITETWEAFERRKEDQKLYLERHDLCLQYKAAQLSETRRLSEQKSAALVEKMMALEAARKGALLQSRHFLFVDYYDYQQFLFRNQRSFVEDEEKLLRCKLSETEDDLMCLLVIQWHLSSHLHAAREKERVEEEAAAERLREFQYRQKLEEERLREEQRIAQEKEASQAEKEQAELEKRLERKRRDAERRAKVRAEREQRRAQE
